Experimental findings from article PMC9006650, “Phosphorylation and acetylation of mitochondrial transcription factor A promote transcription processivity without compromising initiation or DNA compaction” are described below.

In this series the target is T1, TFAM (unmodified) (Homo sapiens, UniProt Q00059 43-246).
T1 sequence: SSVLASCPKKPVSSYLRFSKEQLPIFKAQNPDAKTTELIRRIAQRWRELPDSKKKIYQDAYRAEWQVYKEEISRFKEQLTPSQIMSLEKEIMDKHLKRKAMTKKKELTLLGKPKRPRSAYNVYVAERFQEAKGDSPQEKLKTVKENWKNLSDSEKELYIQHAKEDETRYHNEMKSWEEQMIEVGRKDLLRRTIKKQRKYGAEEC
Description: EMSA; 40 nM DNA; 50, 25, 12 bp per TFAM; no gel shift (legend: very low affinity); pUC19: 50 mM Tris-acetate pH 8.0, 100 mM K acetate, 5 mM Mg acetate, 1 mM DTT, 37 C 30 min, 1% agarose at 4 C; poly-T: 25 mM Tris-HCl pH 8.0, 70 mM NaCl, 10 mM. Conditions: protein: recombinant; tags: N-terminal His6 removed with TEV protease; label: 5'-32P; single strand. A general note: In EMSA bound probe runs differently from free probe, usually more slowly.

For the molecule TTTTTTTTTTTTTTTTTTTTTTTTTTTTTT (ssDNA) [poly-T ssDNA 30-mer], the binding result was “no binding”.
